Measurements reported in patent US20190016816A1 (APTEVO RESEARCH AND DEVELOPMENT, published 2019).

T1: human 5T4 on cells (human, UniProt Q13641 32-420)
T1 construct: also called TPBG; hu5T4
T1 sequence: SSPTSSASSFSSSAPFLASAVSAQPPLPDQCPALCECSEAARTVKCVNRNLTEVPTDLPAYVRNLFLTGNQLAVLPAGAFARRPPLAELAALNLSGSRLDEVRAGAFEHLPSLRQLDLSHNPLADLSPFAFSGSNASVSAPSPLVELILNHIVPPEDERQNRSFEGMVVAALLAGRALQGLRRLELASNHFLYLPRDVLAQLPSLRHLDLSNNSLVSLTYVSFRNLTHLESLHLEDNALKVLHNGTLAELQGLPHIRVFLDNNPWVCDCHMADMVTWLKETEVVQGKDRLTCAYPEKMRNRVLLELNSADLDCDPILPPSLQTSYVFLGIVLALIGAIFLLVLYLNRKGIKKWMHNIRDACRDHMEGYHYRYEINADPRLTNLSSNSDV


Experiments:
FcγRIIIb (CD16b) = biological target: T2, FcγRIIIb (CD16b) (UniProt O75015 17-200, limits assumed); assay: flow cytometry, CHO cells stably expressing CD16b, fluorescent anti-human IgG secondary, MFI (mean)
T2 construct: whole, on cells
T2 sequence (O75015 17-200 limits assumed): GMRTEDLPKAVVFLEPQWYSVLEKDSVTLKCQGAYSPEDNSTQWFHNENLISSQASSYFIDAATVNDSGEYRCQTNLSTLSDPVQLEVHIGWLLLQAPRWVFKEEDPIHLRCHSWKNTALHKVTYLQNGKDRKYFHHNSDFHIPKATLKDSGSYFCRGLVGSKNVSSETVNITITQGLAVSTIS
Excerpt: (§1) ALG.APV-210 contains mutations introduced to prevent interaction with Fcγ receptors (FcγR) that could lead to FcγR-mediated T-cell activation or ADCC, ADCP, CDC etc. Binding of ALG.APV-210 was therefore tested on CHO cell transfectants stably expressing the following FcγR: FcγRI (CD64), FcγRIIa (CD32a His131), FcγRIIb (CD32b), FcγRIIIa (CD16a Val158 and CD16a Phe158), and FcγRIIIb (CD16b). Untransfected CHO cells were used as negative control. A control human IgG1 molecule was used as a positive control. Different concentrations of ALG.APV-210 or control IgG1 were incubated with the FcγR-expressing cell lines, washed, and labeled with a secondary anti-human IgG reagent. Binding of ALG.APV-210 and the control IgG1 was detected by flow cytometry.

FcγRIIIa (CD16a Val158) = biological target: T3, FcγRIIIa (CD16a Val158) (UniProt P08637 17-254, limits assumed); assay: flow cytometry, CHO cells stably expressing CD16a Val158, fluorescent anti-human IgG secondary, MFI (mean)
T3 construct: whole, on cells; allotype Val158 as printed
T3 sequence (P08637 17-254 F176V limits assumed): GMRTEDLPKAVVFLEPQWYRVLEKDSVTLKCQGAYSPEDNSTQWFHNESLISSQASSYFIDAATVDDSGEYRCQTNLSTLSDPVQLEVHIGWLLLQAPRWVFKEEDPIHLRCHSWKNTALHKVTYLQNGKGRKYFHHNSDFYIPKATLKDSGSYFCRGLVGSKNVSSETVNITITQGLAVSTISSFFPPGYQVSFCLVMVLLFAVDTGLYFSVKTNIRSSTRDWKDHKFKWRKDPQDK
Excerpt: as §1

human 5T4 on cells = biological target: T1, human 5T4 on cells; assay: flow cytometry, murine CT26 cells expressing human 5T4, labelled anti-human IgG secondary, MFI (mean)
[1] = biological target: T4, cynomolgus CD137 on cells (cynomolgus macaque, UniProt A9YYE7 24-254); assay: flow cytometry, CD8 T cells gated from CD3-stimulated cynomolgus PBMC, biotinylated antibody + streptavidin-APC, exp 1, n=3 donors
T4 construct: whole, on cells; also called CHO-K1/cynomolgus CD137 cell line; cynomolgus monkey CD137 on CD3-stimulated primary CD8 T cells
T4 sequence (A9YYE7 entry or part of it): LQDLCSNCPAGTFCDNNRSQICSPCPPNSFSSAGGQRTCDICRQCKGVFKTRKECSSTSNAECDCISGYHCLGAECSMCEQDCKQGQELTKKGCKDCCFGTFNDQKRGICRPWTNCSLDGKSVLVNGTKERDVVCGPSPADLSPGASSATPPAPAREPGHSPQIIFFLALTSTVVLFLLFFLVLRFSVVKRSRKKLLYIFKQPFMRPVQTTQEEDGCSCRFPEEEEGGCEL
Protocol: (§2) Following 48 h of incubation with or without CD3, human and cynomolgus PBMC were harvested, pooled, recounted and diluted in FACS buffer (PBS+0.5% BSA, 0.05% NaN₃) to a concentration of 5×10⁶ cells/mL. 50 μL (0.25×10⁶ cells) of cell solution was added to a 96-well FACS staining plate (Falcon #351190). Following 10 min of Fc-blocking in RT using Beriglobin (hIgG, 200 μg/mL), cells were washed in FACS buffer and then incubated for 1 h in 4° C. with 100 μL of the biotinylated ALG.APV-210 or negative control. […] Cells were analysed for ALG.APV-210 binding using flow cytometry by gating on viable, single cells expressing CD3 and CD8. MFI values (FMO subtracted) from 2 independent experiments as well as normalized pooled data from 2 experiments and EC₅₀-values were determined and plotted using GraphPad Prism 7, non-linear regression log (agonist) vs. normalized response—variable slope, n=6 donors/group.
In ELISA tests, the binding of biotinylated ALG.APV-210 to CD137 was similar to that of the non-biotinylated ALG.APV-210 (0.6 nM vs. 0.7 nM). The binding (EC₅₀) of the biotinylated ALG.APV-210 to its immunomodulatory target CD137 when expressed on activated primary human and cynomolgus CD8 T cells from CD3 stimulated PBMC was assessed and compared between the two species as well as to unstimulated cells. […]

[2] = biological target: T4, cynomolgus CD137 on cells; assay: flow cytometry, MFI of all CD3+CD8+ cells gated from CD3-stimulated cynomolgus PBMC
Protocol: as §2, with “control. The antibodies were added in a serial dilution starting either at 5 μg/mL titrating down in a 12 step ⅓ dilution down to […] (exp 1) or 1 μg/mL titrating down in a 12 step ½ dilution down to 0.0005 μg/mL (exp 2).” for “control.”

human CD137 on cells = biological target: T5, human CD137 on cells (human, UniProt Q07011 24-255); assay: flow cytometry, normalized percentage of CD8 T cells (gated from CD3-stimulated human PBMC) bound by the biotinylated antibody, pooled data of 2 exp, n=6 donors
T5 construct: also called 4-1BB; TNFRSF9 (CHO-K1/human CD137 cells)
T5 sequence (Q07011 24-255 limits assumed): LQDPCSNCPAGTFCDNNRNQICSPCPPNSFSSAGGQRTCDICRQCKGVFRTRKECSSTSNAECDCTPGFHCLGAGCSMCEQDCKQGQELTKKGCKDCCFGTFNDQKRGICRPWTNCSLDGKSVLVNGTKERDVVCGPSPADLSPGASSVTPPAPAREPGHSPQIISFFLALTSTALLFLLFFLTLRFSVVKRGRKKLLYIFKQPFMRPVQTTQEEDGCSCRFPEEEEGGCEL
Protocol: as §2, with “control. The antibodies were added in a serial dilution starting either at 5 μg/mL titrating down in a 12 step ⅓ dilution down to […] (exp 1) or 1 μg/mL titrating down in a 12 step ½ dilution down to 0.0005 μg/mL (exp 2).” for “control.”

binding result (FcγRIIIb (CD16b))	binding result (FcγRIIIa (CD16a Val158))	EC50 (human 5T4 on cells) [nM]	Maximum MFI (human 5T4 on cells)	Binder	EC50 (read off the curve) [1] [nM]	EC50 [2] [nM]	EC50 (human CD137 on cells) [nM]
no binding (tested: 1000 nM)	no binding (tested: 1000 nM)	2.7	1730	ALG.APV-210 (bispecific antibody, Optimized ADAPTIR scFv-Fc-scFv homodimer with stabilizing disulfide in the 1210 scFv; also called 5T4-CD137 bispecific antibody) EVQLLESGGGLVQPGGSLRLSCAASGFTFSHGSMYWVRQAPGKGLEWVSSISSGSGSTYYADSVKGRFTISHDNSKNTLYLQMNSLRAEDTAVYYCARSSYYGSYYSIDYWGQGTLVTVSSGGGGSGGGGSGGGGSGGGGSDIQMTQSPSSLSASVGDRVTITCRASQSISSYLNWYQQKPGKAPKLLIYAASSLQSGVPSRFSGSGSGTDFTLTISSLQPEDFATYYCQQYYDNLPTFGQGTKLEIKEPKSSDKTHTCPPCPAPEAAGAPSVFLFPPKPKDTLMISRTPEVTCVVVDVSHEDPEVKFNWYVDGVEVHNAKTKPREEQYNSTYRVVSVLTVLHQDWLNGKEYKCAVSNKALPAPIEKTISKAKGQPREPQVYTLPPSRDELTKNQVSLTCLVKGFYPSDIAVEWESNGQPENNYKTTPPVLDSDGSFFLYSKLTVDKSRWQQGNVFSCSVMHEALHNHYTQKSLSLSPGSGGGGSGGGGSGGGGSPSEVQLLESGGGLVQPGGSLRLSCAASGFTFSSYAMSWVRQAPGKCLEWVSAISGSGGSTYYADSVKGRFTISRDNSKNTLYLQMNSLRAEDTAVYYCARYYGGYYSAWMDYWGQGTLVTVSSGGGGSGGGGSGGGGSGGGGSDIQMTQSPSSLSASVGDRVTITCRASQSISSFLNWYQQKPGKAPKLLIYAASSLQSGVPSRFSGSGSGTDFTLTISSLQPEDSATYYCQQTYGYLHTFGCGTKLEIKR	–	–	–
–	–	–	–	biotinylated ALG.APV-210 (bispecific antibody, also called ALG.APV-210 (biotinylated for FACS detection)) EVQLLESGGGLVQPGGSLRLSCAASGFTFSHGSMYWVRQAPGKGLEWVSSISSGSGSTYYADSVKGRFTISHDNSKNTLYLQMNSLRAEDTAVYYCARSSYYGSYYSIDYWGQGTLVTVSSGGGGSGGGGSGGGGSGGGGSDIQMTQSPSSLSASVGDRVTITCRASQSISSYLNWYQQKPGKAPKLLIYAASSLQSGVPSRFSGSGSGTDFTLTISSLQPEDFATYYCQQYYDNLPTFGQGTKLEIKEPKSSDKTHTCPPCPAPEAAGAPSVFLFPPKPKDTLMISRTPEVTCVVVDVSHEDPEVKFNWYVDGVEVHNAKTKPREEQYNSTYRVVSVLTVLHQDWLNGKEYKCAVSNKALPAPIEKTISKAKGQPREPQVYTLPPSRDELTKNQVSLTCLVKGFYPSDIAVEWESNGQPENNYKTTPPVLDSDGSFFLYSKLTVDKSRWQQGNVFSCSVMHEALHNHYTQKSLSLSPGSGGGGSGGGGSGGGGSPSEVQLLESGGGLVQPGGSLRLSCAASGFTFSSYAMSWVRQAPGKCLEWVSAISGSGGSTYYADSVKGRFTISRDNSKNTLYLQMNSLRAEDTAVYYCARYYGGYYSAWMDYWGQGTLVTVSSGGGGSGGGGSGGGGSGGGGSDIQMTQSPSSLSASVGDRVTITCRASQSISSFLNWYQQKPGKAPKLLIYAASSLQSGVPSRFSGSGSGTDFTLTISSLQPEDSATYYCQQTYGYLHTFGCGTKLEIKR	~0.3	0.236	0.027
–	–	2.2	1730	ALG.APV-187 (bispecific antibody, Optimized ADAPTIR scFv-Fc-scFv homodimer with stabilizing disulfide in the 1210 scFv) EVQLLESGGGLVQPGGSLRLSCAASGFTFSHGSMYWVRQAPGKGLEWVSSISSGSGSTYYADSVKGRFTISHDNSKNTLYLQMNSLRAEDTAVYYCARSSYYGSYYSIDYWGQGTLVTVSSGGGGSGGGGSGGGGSGGGGSDIQMTQSPSSLSASVGDRVTITCRASQSISSYLNWYQQKPGKAPKLLIYAASSLQSGVPSRFSGSGSGTDFTLTISSLQPEDFATYYCQQYYDNLPTFGQGTKLEIKSSEPKSSDKTHTCPPCPAPEAAGAPSVFLFPPKPKDTLMISRTPEVTCVVVDVSHEDPEVKFNWYVDGVEVHNAKTKPREEQYNSTYRVVSVLTVLHQDWLNGKEYKCAVSNKALPAPIEKTISKAKGQPREPQVYTLPPSRDELTKNQVSLTCLVKGFYPSDIAVEWESNGQPENNYKTTPPVLDSDGSFFLYSKLTVDKSRWQQGNVFSCSVMHEALHNHYTQKSLSLSPGSGGGGSGGGGSGGGGSPSEVQLLESGGGLVQPGGSLRLSCAASGFTFSSYAMSWVRQAPGKCLEWVSAISGSGGSTYYADSVKGRFTISRDNSKNTLYLQMNSLRAEDTAVYYCARYYGGYYSAWMDYWGQGTLVTVSSGGGGSGGGGSGGGGSGGGGSDIQMTQSPSSLSASVGDRVTITCRASQSISSFLNWYQQKPGKAPKLLIYAASSLQSGVPSRFSGSGSGTDFTLTISSLQPEDSATYYCQQTYGYLHTFGCGTKLEIKR	–	–	–
